These results are taken from publication PMC10397247.

Read-outs that look alike come from different tables or passages of the source.

The target in one test is T1, P3-AA.
T1 chain: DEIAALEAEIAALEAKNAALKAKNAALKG
The experiment in a line: two-hybrid library CCmax.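 Also: natural log of median RNA to DNA barcode read ratio; higher means stronger binding.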

The next test addresses T2, P8-AA.
T2 chain: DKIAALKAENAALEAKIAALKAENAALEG
As to the kind of experiment: two-hybrid library CCmax.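 Also: natural log of median RNA to DNA barcode read ratio; higher means stronger binding.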 Particulars: mean of both orientations.

The target in another test is T3, zCON9_B.
T3 chain: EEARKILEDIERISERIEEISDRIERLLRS
The experiment in a line: two-hybrid library CCmax.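 Also: natural log of median RNA to DNA barcode read ratio; higher means stronger binding.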

The target in another test is T4, P2-AA.
T4 chain: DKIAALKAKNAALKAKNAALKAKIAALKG
As to the kind of experiment: two-hybrid library CCmax.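 Also: natural log of median RNA to DNA barcode read ratio; higher means stronger binding.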

A further test has as its target T5, P7-AA.
T5 chain: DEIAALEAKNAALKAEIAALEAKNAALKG
As to the kind of experiment: two-hybrid library CCmax.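 Also: natural log of median RNA to DNA barcode read ratio; higher means stronger binding.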 Particulars: mean of both orientations.

The next test has as its target T6, P4-AA.
T6 chain: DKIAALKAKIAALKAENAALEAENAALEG
The experiment in a line: two-hybrid library CCmax.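 Also: natural log of median RNA to DNA barcode read ratio; higher means stronger binding.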

The target of another test is T7, P9-AA.
T7 chain: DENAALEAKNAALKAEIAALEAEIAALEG
As to the kind of experiment: two-hybrid library CCmax.

The next test addresses T8, zCON9_D.
T8 chain: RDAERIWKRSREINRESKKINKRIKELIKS
The experiment in a line: two-hybrid library CCmax. The settings on record: mean of both orientations.

Another test has as its target T9, zCON9_A.
T9 chain: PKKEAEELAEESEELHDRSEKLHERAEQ
The experiment in a line: two-hybrid library CCmax.

A further test addresses T10, 4H3974-bN.
T10 chain: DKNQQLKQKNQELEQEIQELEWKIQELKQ
As to the kind of experiment: two-hybrid library CCNG1.

The next test has as its target T11, 4H591-bN.
T11 chain: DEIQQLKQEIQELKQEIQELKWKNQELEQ
The experiment in a line: two-hybrid library CCNG1.

The target of the next test is T12, 4H906-bN.
T12 chain: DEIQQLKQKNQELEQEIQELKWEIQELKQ
As to the kind of experiment: two-hybrid library CCNG1.

For a further test, the target named is T13, 4H850-bN.
T13 chain: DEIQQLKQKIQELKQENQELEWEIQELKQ
The experiment in a line: two-hybrid library CCNG1.

In the next test the target is T14, 4H3628-bN.
T14 chain: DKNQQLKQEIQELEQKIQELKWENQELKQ
As to the kind of experiment: two-hybrid library CCNG1.

The target in a further test is T15, 4H570-bN.
T15 chain: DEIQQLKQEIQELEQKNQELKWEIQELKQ
As to the kind of experiment: two-hybrid library CCNG1.

The target in a further test is T16, 4H3817-bN.
T16 chain: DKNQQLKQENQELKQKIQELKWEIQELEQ
As to the kind of experiment: two-hybrid library CCNG1.

The target in the next test is T17, 4H3926-bN.
T17 chain: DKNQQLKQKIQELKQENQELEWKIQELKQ
The experiment in a line: two-hybrid library CCNG1.

The next test deals with T18, 4H3613-bN.
T18 chain: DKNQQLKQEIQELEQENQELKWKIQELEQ
As to the kind of experiment: two-hybrid library CCNG1.

A further test has as its target T19, 4H3858-bN.
T19 chain: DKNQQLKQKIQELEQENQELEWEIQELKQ
The experiment in a line: two-hybrid library CCNG1.

In the next test the target is T20, 4H626-bN.
T20 chain: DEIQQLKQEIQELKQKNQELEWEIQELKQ
As to the kind of experiment: two-hybrid library CCNG1.

The target of the next test is T21, P12-AA.
T21 chain: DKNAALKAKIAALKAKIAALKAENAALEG
The experiment in a line: two-hybrid library CCmax.

On to DKIAALKAKNAALKAKNAALKAKIAALKG [P2-AA], for which the interaction score was -1.6 in the test with P3-AA (mean of both orientations); -1.37 with P8-AA; 1.28 in the test with zCON9_B (mean of both orientations); -0.878 in the test with P2-AA; -1.47 with P7-AA; -0.357 in the test with P4-AA (mean of both orientations). Moreover, the values for the interaction score with P9-AA (mean of both orientations), with zCON9_D and with zCON9_A (mean of both orientations) were -0.716, -2.05 and -1.98, respectively.

For DKNQQLKQEIQELEQENQELKWKIQELEQ [4H3613-bN], the interaction score was -1.53 in the test with 4H3974-bN; -0.893 with 4H591-bN; -1.78 in the test with 4H906-bN; -0.0632 with 4H850-bN; -1.69 with 4H3628-bN; -0.737 in the test with 4H570-bN. Further, the interaction score is -0.783 with 4H3817-bN; 0.45 with 4H3926-bN; -0.839 with 4H3613-bN; -0.655 with 4H3858-bN; -1.98 in the test with 4H626-bN.

For DEIAALEAEIAALEAKNAALKAKNAALKG [P3-AA], the interaction score with P3-AA is -1.46; with P8-AA it was -0.983; in the test with zCON9_B (mean of both orientations), -1.33; with P7-AA it was -1.27; in the test with P4-AA (mean of both orientations) it was 2.28; with P9-AA (mean of both orientations) it was -1.38. Besides, the values for the interaction score in the test with zCON9_D and with zCON9_A were -2.08 and -1.78, respectively.

Take DENAALEAKNAALKAEIAALEAEIAALEG [P9-AA]: the interaction score was -1.59 with zCON9_B, -1.97 in the test with P9-AA, -1.94 in the test with zCON9_D and -1.13 with zCON9_A.

In the case of DKNAALKAKIAALKAKIAALKAENAALEG [P12-AA], the interaction score with P3-AA (mean of both orientations) is 1.42; with P8-AA it was -1.95; with zCON9_B (mean of both orientations) it was 0.333; in the test with P2-AA (mean of both orientations) it was -1.74; with P7-AA, -1.45; with P4-AA (mean of both orientations), -1.68. In addition, the interaction score with P9-AA (mean of both orientations) was 0.219; with zCON9_D it was -2.06; with zCON9_A it was -1.73; with P12-AA it was -1.64.

Turning to DKIAALKAKIAALKAENAALEAENAALEG [P4-AA], the interaction score in the test with P8-AA was -1.82; in the test with zCON9_B (mean of both orientations), -1.1; in the test with P7-AA it was -1.41; in the test with P4-AA it was -2.32; in the test with P9-AA (mean of both orientations), -1.18; with zCON9_D, -3.43. Moreover, the interaction score with zCON9_A is -1.68.
